Source: US5691196, “Recombinant nucleic acid containing a response element” (American Cyanamid Company)

Tests used:
RXRalpha [1] = molecular target: T1, RXRalpha (Homo sapiens, UniProt P19793 P19793:1-462); test: cell_activity; CAT reporter, RA vs no RA; settings: tags: pMT2-RXRalpha, CV-1 cells; 5' GATC overhang
Method: (§1) Maintenance of CV-1 cells, transfection of plasmid DNA into these cells, normalization for plasmid DNA uptake by the cells and CAT and β-galactosidase (β-gal) assays are performed as previously described in the literature. The transfection mixtures contained 5 μg of each reporter plasmid, 5 μg of the β-gal expression vector pRSV-β-gal, the amounts of the pMT2-RXRα, pMT2-RARα, pMT2-RARβ, pMT2-ARP-1 and pMT2-Ear3-COUP-TF expression vectors and the appropriate amounts of the previously described control vector pMT2-UT to bring the final amount of the plasmid DNA in the transfection mixtures to a total of 17 μg. The transfection mixtures containing the expression vectors pMT2-HNF4 or pSG5-AR, 1 μg of the β-gal expression vector pCMV-β-gal instead of the vector pRSV-β-gal is used and the final amount of plasmid DNA in the transfection mixture is adjusted to a total of 13 μg as described above.
(§2) The CAT activity in extracts from these cells is normalized for DNA uptake by the cells by conventional methods, and expressed relative to the normalized CAT activity of the construct -41ALCAT in the absence of cotransfected receptor expression vectors or any ligands (Relative CAT Activity). The data represent the average of at least two independent experiments.

RARalpha = molecular target: T2, RARalpha (UniProt P10276 P10276:1-462); test: cell_activity; two copies of M3; RA; 500 ng RARalpha vector reverses ARP-1 repression and exceeds no-ARP-1 level; settings: tags: pMT2-RARalpha, CV-1 cells; 5' GATC overhang
T2 sequence: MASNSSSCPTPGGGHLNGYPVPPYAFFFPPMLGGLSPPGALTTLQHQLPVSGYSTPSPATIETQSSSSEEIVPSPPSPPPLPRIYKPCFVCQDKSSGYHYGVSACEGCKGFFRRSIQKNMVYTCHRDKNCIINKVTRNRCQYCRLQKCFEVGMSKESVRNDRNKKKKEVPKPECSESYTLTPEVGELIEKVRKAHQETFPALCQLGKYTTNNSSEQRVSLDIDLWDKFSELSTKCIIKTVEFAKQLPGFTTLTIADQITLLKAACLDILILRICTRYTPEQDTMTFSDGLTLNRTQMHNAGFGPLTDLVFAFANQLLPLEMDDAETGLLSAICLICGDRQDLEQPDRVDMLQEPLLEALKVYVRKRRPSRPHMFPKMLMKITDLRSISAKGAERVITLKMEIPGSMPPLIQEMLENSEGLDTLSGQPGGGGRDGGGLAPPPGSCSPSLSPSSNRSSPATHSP
Method: A reporter construct similar to [A5']-41ALCAT but containing two copies of a mutated version of site A5' in which the sequence CCT in the spacer between the two repeats in the site A5' has been changed to TTT (M3) is tested for its responsiveness to different amounts (indicated) of the RXRα or RARα expression vectors in the presence of RA and the indicated amounts of the ARP-1 expression vector by transient transfection assays into CV-1 cells as described in FIG. 8.

RXRalpha [2] = molecular target: T1, RXRalpha; test: cell_activity; RA vs no RA; settings: tags: pMT2-RXRalpha, CV-1 cells; 5' GATC overhang
RXRalpha [3] = molecular target: T1, RXRalpha; test: cell_activity; RA vs no RA; settings: tags: pMT2-RXRalpha, CV-1 cells; 5' GATC overhang; remark: listed apart in the source
Method: as §1, §2

RXRalpha [4] = molecular target: T1, RXRalpha; test: cell_activity; yeast lacZ reporter, two copies, 1e-6 M 9-cis-RA; 4-fold with all-trans-RA; settings: protein: extract; tags: ubiquitin-fusion expression in yeast (YEpRXRalpha); label: 32P

T1 sequence (P19793 whole entry, one chain of several): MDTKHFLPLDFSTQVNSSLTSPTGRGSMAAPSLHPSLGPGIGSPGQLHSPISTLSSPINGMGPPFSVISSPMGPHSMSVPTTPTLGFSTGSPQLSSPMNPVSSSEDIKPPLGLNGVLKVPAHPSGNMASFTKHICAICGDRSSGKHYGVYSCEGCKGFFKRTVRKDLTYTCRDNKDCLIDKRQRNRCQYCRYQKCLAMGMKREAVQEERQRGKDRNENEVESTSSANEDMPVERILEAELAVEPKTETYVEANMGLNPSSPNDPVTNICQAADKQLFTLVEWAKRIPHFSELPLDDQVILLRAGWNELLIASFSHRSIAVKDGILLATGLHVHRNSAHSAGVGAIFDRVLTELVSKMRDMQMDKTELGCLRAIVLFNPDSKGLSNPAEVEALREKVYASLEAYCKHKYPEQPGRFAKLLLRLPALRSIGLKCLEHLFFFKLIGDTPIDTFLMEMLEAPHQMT

B1: site A5' (dsDNA)
DNA 1: ACTGAACCCTTGACCCCTG
DNA 2: CAGGGGTCAAGGGTTCAGT
- activity (RXRalpha [1]): 4.8 fold

B2: M3 (dsDNA)
DNA 1: ACTGAACTTTTGACCCCTG
DNA 2: CAGGGGTCAAAAGTTCAGT
- activity (RARalpha): > 2 fold

B3: M10 (dsDNA)
DNA 1: ACTGACCTGTGACCCCTG
DNA 2: CAGGGGTCACAGGTCAGT
- activity (RXRalpha [2]): < 3 fold

B4: M4 (dsDNA)
DNA 1: ACTGACCCCTTGACCCCTG
DNA 2: CAGGGGTCAAGGGGTCAGT
- activity (RXRalpha [1]): 7 fold

B5: M2 (dsDNA)
DNA 1: ACTGAACTGATGACCCCTG
DNA 2: CAGGGGTCATCAGTTCAGT
- activity (RXRalpha [3]): < 3 fold

B6: apoAI site A (oligo A) (dsDNA)
DNA 1: ACTGAACCCTTGACCCCTGCCCT
DNA 2: AGGGCAGGGGTCAAGGGTTCAGT
- activity (RXRalpha [4]): 14 fold

B7: M9 (dsDNA)
DNA 1: ACTGAACTGTGACCCCTG
DNA 2: CAGGGGTCACAGTTCAGT
- activity (RXRalpha [2]): < 3 fold
